Data taken from patent publication US20150344570A1 (published 2015).

Each binder was assayed against T1, FcγRIa (human, UniProt P12314 16-292) (assay: SPR (Biacore), captured antibody, FcγRIa analyte; relative to GpH7-A5/GpH7-B3/GpL16-k0).
T1 construct: extracellular domain; soluble His-tagged extracellular domain expressed in FreeStyle293 cells, used as analyte in Biacore; also called FcgRI; CD64
T1 sequence (P12314 16-292): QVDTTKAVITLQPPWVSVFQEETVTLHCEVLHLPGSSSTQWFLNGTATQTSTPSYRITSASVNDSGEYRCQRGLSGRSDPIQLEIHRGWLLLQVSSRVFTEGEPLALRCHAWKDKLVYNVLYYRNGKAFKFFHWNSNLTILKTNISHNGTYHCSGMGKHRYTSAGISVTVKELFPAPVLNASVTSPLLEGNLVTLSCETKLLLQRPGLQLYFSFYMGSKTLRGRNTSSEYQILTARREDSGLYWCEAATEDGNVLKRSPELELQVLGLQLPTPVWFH

| He/Con_1a | Binder |
| --- | --- |
| 107 relative, control = 100 | GpH7-A5/GpH7-B3 variant Y300_11K/GpL16-k0 (antibody, human IgG1, kappa, heterodimerized IgG1, mutation in one H chain only; also called He Ab) heavy 1: not shown heavy 2: not shown light: DIVMTQSPLSLPVTPGEPASISCQASESLVHSNRNTYLHWYLQKPGQSPQLLIYKVSNRFSGVPDRFSGSGSGTDFTLKISRVEAEDVGVYYCSQNTHVPPTFGQGTKVEIERTVAAPSVFIFPPSDEQLKSGTASVVCLLNNFYPREAKVQWKVDNALQSGNSQESVTEQDSKDSTYSLSSTLTLSKADYEKHKVYACEVTHQGLSSPVTKSFNRGEC |
| 117 relative, control = 100 | GpH7-A5/GpH7-B3 variant Y300_03V/GpL16-k0 (antibody, human IgG1, kappa, heterodimerized IgG1, mutation in one H chain only; also called He Ab) heavy 1: not shown heavy 2: not shown light: DIVMTQSPLSLPVTPGEPASISCQASESLVHSNRNTYLHWYLQKPGQSPQLLIYKVSNRFSGVPDRFSGSGSGTDFTLKISRVEAEDVGVYYCSQNTHVPPTFGQGTKVEIERTVAAPSVFIFPPSDEQLKSGTASVVCLLNNFYPREAKVQWKVDNALQSGNSQESVTEQDSKDSTYSLSSTLTLSKADYEKHKVYACEVTHQGLSSPVTKSFNRGEC |
| 112 relative, control = 100 | GpH7-A5/GpH7-B3 variant Y300_14T/GpL16-k0 (antibody, human IgG1, kappa, heterodimerized IgG1, mutation in one H chain only; also called He Ab) heavy 1: not shown heavy 2: not shown light: DIVMTQSPLSLPVTPGEPASISCQASESLVHSNRNTYLHWYLQKPGQSPQLLIYKVSNRFSGVPDRFSGSGSGTDFTLKISRVEAEDVGVYYCSQNTHVPPTFGQGTKVEIERTVAAPSVFIFPPSDEQLKSGTASVVCLLNNFYPREAKVQWKVDNALQSGNSQESVTEQDSKDSTYSLSSTLTLSKADYEKHKVYACEVTHQGLSSPVTKSFNRGEC |
| 112 relative, control = 100 | GpH7-A5/GpH7-B3 variant Y300_06M/GpL16-k0 (antibody, human IgG1, kappa, heterodimerized IgG1, mutation in one H chain only; also called He Ab) heavy 1: not shown heavy 2: not shown light: DIVMTQSPLSLPVTPGEPASISCQASESLVHSNRNTYLHWYLQKPGQSPQLLIYKVSNRFSGVPDRFSGSGSGTDFTLKISRVEAEDVGVYYCSQNTHVPPTFGQGTKVEIERTVAAPSVFIFPPSDEQLKSGTASVVCLLNNFYPREAKVQWKVDNALQSGNSQESVTEQDSKDSTYSLSSTLTLSKADYEKHKVYACEVTHQGLSSPVTKSFNRGEC |
| 111 relative, control = 100 | GpH7-A5/GpH7-B3 variant Y300_13S/GpL16-k0 (antibody, human IgG1, kappa, heterodimerized IgG1, mutation in one H chain only; also called He Ab) heavy 1: not shown heavy 2: not shown light: DIVMTQSPLSLPVTPGEPASISCQASESLVHSNRNTYLHWYLQKPGQSPQLLIYKVSNRFSGVPDRFSGSGSGTDFTLKISRVEAEDVGVYYCSQNTHVPPTFGQGTKVEIERTVAAPSVFIFPPSDEQLKSGTASVVCLLNNFYPREAKVQWKVDNALQSGNSQESVTEQDSKDSTYSLSSTLTLSKADYEKHKVYACEVTHQGLSSPVTKSFNRGEC |
| 112 relative, control = 100 | GpH7-A5/GpH7-B3 variant Y300_20W/GpL16-k0 (antibody, human IgG1, kappa, heterodimerized IgG1, mutation in one H chain only; also called He Ab) heavy 1: not shown heavy 2: not shown light: DIVMTQSPLSLPVTPGEPASISCQASESLVHSNRNTYLHWYLQKPGQSPQLLIYKVSNRFSGVPDRFSGSGSGTDFTLKISRVEAEDVGVYYCSQNTHVPPTFGQGTKVEIERTVAAPSVFIFPPSDEQLKSGTASVVCLLNNFYPREAKVQWKVDNALQSGNSQESVTEQDSKDSTYSLSSTLTLSKADYEKHKVYACEVTHQGLSSPVTKSFNRGEC |
| 112 relative, control = 100 | GpH7-A5/GpH7-B3 variant Y300_19Q/GpL16-k0 (antibody, human IgG1, kappa, heterodimerized IgG1, mutation in one H chain only; also called He Ab) heavy 1: not shown heavy 2: not shown light: DIVMTQSPLSLPVTPGEPASISCQASESLVHSNRNTYLHWYLQKPGQSPQLLIYKVSNRFSGVPDRFSGSGSGTDFTLKISRVEAEDVGVYYCSQNTHVPPTFGQGTKVEIERTVAAPSVFIFPPSDEQLKSGTASVVCLLNNFYPREAKVQWKVDNALQSGNSQESVTEQDSKDSTYSLSSTLTLSKADYEKHKVYACEVTHQGLSSPVTKSFNRGEC |
| 113 relative, control = 100 | GpH7-A5/GpH7-B3 variant Y300_08L/GpL16-k0 (antibody, human IgG1, kappa, heterodimerized IgG1, mutation in one H chain only; also called He Ab) heavy 1: not shown heavy 2: not shown light: DIVMTQSPLSLPVTPGEPASISCQASESLVHSNRNTYLHWYLQKPGQSPQLLIYKVSNRFSGVPDRFSGSGSGTDFTLKISRVEAEDVGVYYCSQNTHVPPTFGQGTKVEIERTVAAPSVFIFPPSDEQLKSGTASVVCLLNNFYPREAKVQWKVDNALQSGNSQESVTEQDSKDSTYSLSSTLTLSKADYEKHKVYACEVTHQGLSSPVTKSFNRGEC |

These binders were tested against FcγRIIIa extracellular domain with C-terminal His tag (human, UniProt P08637 17-208) (assay: SPR (Biacore), both H chains altered; HoCon Ab GpH7-B3/GpL16-k0 = 100).
Sequence of FcγRIIIa extracellular domain with C-terminal His tag (P08637 17-208): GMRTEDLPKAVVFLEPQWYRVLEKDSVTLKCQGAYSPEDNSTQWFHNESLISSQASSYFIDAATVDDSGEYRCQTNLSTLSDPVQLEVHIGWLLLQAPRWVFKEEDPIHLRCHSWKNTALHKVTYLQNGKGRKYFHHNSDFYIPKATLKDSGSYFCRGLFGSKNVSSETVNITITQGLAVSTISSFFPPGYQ

| Binder | Ho/Con_3a |
| --- | --- |
| GpH7-B3 variant A330_05P/GpL16-k0 (antibody, human IgG1, kappa, both H chains altered; also called Ho Ab A330_05P) heavy: not shown light: DIVMTQSPLSLPVTPGEPASISCQASESLVHSNRNTYLHWYLQKPGQSPQLLIYKVSNRFSGVPDRFSGSGSGTDFTLKISRVEAEDVGVYYCSQNTHVPPTFGQGTKVEIERTVAAPSVFIFPPSDEQLKSGTASVVCLLNNFYPREAKVQWKVDNALQSGNSQESVTEQDSKDSTYSLSSTLTLSKADYEKHKVYACEVTHQGLSSPVTKSFNRGEC | 56.6% |
| GpH7-B3 variant A330_07I/GpL16-k0 (antibody, human IgG1, kappa, both H chains altered; also called Ho Ab A330_07I) heavy: not shown light: DIVMTQSPLSLPVTPGEPASISCQASESLVHSNRNTYLHWYLQKPGQSPQLLIYKVSNRFSGVPDRFSGSGSGTDFTLKISRVEAEDVGVYYCSQNTHVPPTFGQGTKVEIERTVAAPSVFIFPPSDEQLKSGTASVVCLLNNFYPREAKVQWKVDNALQSGNSQESVTEQDSKDSTYSLSSTLTLSKADYEKHKVYACEVTHQGLSSPVTKSFNRGEC | 93% |
| GpH7-B3 variant E333_02A/GpL16-k0 (antibody, human IgG1, kappa, both H chains altered; also called Ho Ab E333_02A) heavy: not shown light: DIVMTQSPLSLPVTPGEPASISCQASESLVHSNRNTYLHWYLQKPGQSPQLLIYKVSNRFSGVPDRFSGSGSGTDFTLKISRVEAEDVGVYYCSQNTHVPPTFGQGTKVEIERTVAAPSVFIFPPSDEQLKSGTASVVCLLNNFYPREAKVQWKVDNALQSGNSQESVTEQDSKDSTYSLSSTLTLSKADYEKHKVYACEVTHQGLSSPVTKSFNRGEC | 93.3% |

The remaining lines, values ahead:

| Ho/Con_3a | Binder |
| --- | --- |
| 95.4% | GpH7-B3 variant I332_06M/GpL16-k0 (antibody, human IgG1, kappa, both H chains altered; also called Ho Ab I332_06M) heavy: not shown light: DIVMTQSPLSLPVTPGEPASISCQASESLVHSNRNTYLHWYLQKPGQSPQLLIYKVSNRFSGVPDRFSGSGSGTDFTLKISRVEAEDVGVYYCSQNTHVPPTFGQGTKVEIERTVAAPSVFIFPPSDEQLKSGTASVVCLLNNFYPREAKVQWKVDNALQSGNSQESVTEQDSKDSTYSLSSTLTLSKADYEKHKVYACEVTHQGLSSPVTKSFNRGEC |
| 41.6% | GpH7-B3 variant G236_15Y/GpL16-k0 (antibody, human IgG1, kappa, both H chains altered; also called Ho Ab G236_15Y) heavy: not shown light: DIVMTQSPLSLPVTPGEPASISCQASESLVHSNRNTYLHWYLQKPGQSPQLLIYKVSNRFSGVPDRFSGSGSGTDFTLKISRVEAEDVGVYYCSQNTHVPPTFGQGTKVEIERTVAAPSVFIFPPSDEQLKSGTASVVCLLNNFYPREAKVQWKVDNALQSGNSQESVTEQDSKDSTYSLSSTLTLSKADYEKHKVYACEVTHQGLSSPVTKSFNRGEC |
| 95.1% | GpH7-B3 variant E333_13S/GpL16-k0 (antibody, human IgG1, kappa, both H chains altered; also called Ho Ab E333_13S) heavy: not shown light: DIVMTQSPLSLPVTPGEPASISCQASESLVHSNRNTYLHWYLQKPGQSPQLLIYKVSNRFSGVPDRFSGSGSGTDFTLKISRVEAEDVGVYYCSQNTHVPPTFGQGTKVEIERTVAAPSVFIFPPSDEQLKSGTASVVCLLNNFYPREAKVQWKVDNALQSGNSQESVTEQDSKDSTYSLSSTLTLSKADYEKHKVYACEVTHQGLSSPVTKSFNRGEC |
| 90.3% | GpH7-B3 variant H268_18N/GpL16-k0 (antibody, human IgG1, kappa, both H chains altered; also called Ho Ab H268_18N) heavy: not shown light: DIVMTQSPLSLPVTPGEPASISCQASESLVHSNRNTYLHWYLQKPGQSPQLLIYKVSNRFSGVPDRFSGSGSGTDFTLKISRVEAEDVGVYYCSQNTHVPPTFGQGTKVEIERTVAAPSVFIFPPSDEQLKSGTASVVCLLNNFYPREAKVQWKVDNALQSGNSQESVTEQDSKDSTYSLSSTLTLSKADYEKHKVYACEVTHQGLSSPVTKSFNRGEC |
| 86.5% | GpH7-B3 variant E333_03V/GpL16-k0 (antibody, human IgG1, kappa, both H chains altered; also called Ho Ab E333_03V) heavy: not shown light: DIVMTQSPLSLPVTPGEPASISCQASESLVHSNRNTYLHWYLQKPGQSPQLLIYKVSNRFSGVPDRFSGSGSGTDFTLKISRVEAEDVGVYYCSQNTHVPPTFGQGTKVEIERTVAAPSVFIFPPSDEQLKSGTASVVCLLNNFYPREAKVQWKVDNALQSGNSQESVTEQDSKDSTYSLSSTLTLSKADYEKHKVYACEVTHQGLSSPVTKSFNRGEC |
| 95.8% | GpH7-B3 variant I336_08L/GpL16-k0 (antibody, human IgG1, kappa, both H chains altered; also called Ho Ab I336_08L) heavy: not shown light: DIVMTQSPLSLPVTPGEPASISCQASESLVHSNRNTYLHWYLQKPGQSPQLLIYKVSNRFSGVPDRFSGSGSGTDFTLKISRVEAEDVGVYYCSQNTHVPPTFGQGTKVEIERTVAAPSVFIFPPSDEQLKSGTASVVCLLNNFYPREAKVQWKVDNALQSGNSQESVTEQDSKDSTYSLSSTLTLSKADYEKHKVYACEVTHQGLSSPVTKSFNRGEC |
| 90.9% | GpH7-B3 variant E333_20W/GpL16-k0 (antibody, human IgG1, kappa, both H chains altered; also called Ho Ab E333_20W) heavy: not shown light: DIVMTQSPLSLPVTPGEPASISCQASESLVHSNRNTYLHWYLQKPGQSPQLLIYKVSNRFSGVPDRFSGSGSGTDFTLKISRVEAEDVGVYYCSQNTHVPPTFGQGTKVEIERTVAAPSVFIFPPSDEQLKSGTASVVCLLNNFYPREAKVQWKVDNALQSGNSQESVTEQDSKDSTYSLSSTLTLSKADYEKHKVYACEVTHQGLSSPVTKSFNRGEC |
| 58.3% | GpH7-B3 variant G236_20W/GpL16-k0 (antibody, human IgG1, kappa, both H chains altered; also called Ho Ab G236_20W) heavy: not shown light: DIVMTQSPLSLPVTPGEPASISCQASESLVHSNRNTYLHWYLQKPGQSPQLLIYKVSNRFSGVPDRFSGSGSGTDFTLKISRVEAEDVGVYYCSQNTHVPPTFGQGTKVEIERTVAAPSVFIFPPSDEQLKSGTASVVCLLNNFYPREAKVQWKVDNALQSGNSQESVTEQDSKDSTYSLSSTLTLSKADYEKHKVYACEVTHQGLSSPVTKSFNRGEC |
| 87.1% | GpH7-B3 variant E333_04F/GpL16-k0 (antibody, human IgG1, kappa, both H chains altered; also called Ho Ab E333_04F) heavy: not shown light: DIVMTQSPLSLPVTPGEPASISCQASESLVHSNRNTYLHWYLQKPGQSPQLLIYKVSNRFSGVPDRFSGSGSGTDFTLKISRVEAEDVGVYYCSQNTHVPPTFGQGTKVEIERTVAAPSVFIFPPSDEQLKSGTASVVCLLNNFYPREAKVQWKVDNALQSGNSQESVTEQDSKDSTYSLSSTLTLSKADYEKHKVYACEVTHQGLSSPVTKSFNRGEC |
| 49.9% | GpH7-B3 variant L234_04F/GpL16-k0 (antibody, human IgG1, kappa, both H chains altered; also called Ho Ab L234_04F) heavy: not shown light: DIVMTQSPLSLPVTPGEPASISCQASESLVHSNRNTYLHWYLQKPGQSPQLLIYKVSNRFSGVPDRFSGSGSGTDFTLKISRVEAEDVGVYYCSQNTHVPPTFGQGTKVEIERTVAAPSVFIFPPSDEQLKSGTASVVCLLNNFYPREAKVQWKVDNALQSGNSQESVTEQDSKDSTYSLSSTLTLSKADYEKHKVYACEVTHQGLSSPVTKSFNRGEC |
| 98.2% | GpH7-B3 variant L234_07I/GpL16-k0 (antibody, human IgG1, kappa, both H chains altered; also called Ho Ab L234_07I) heavy: not shown light: DIVMTQSPLSLPVTPGEPASISCQASESLVHSNRNTYLHWYLQKPGQSPQLLIYKVSNRFSGVPDRFSGSGSGTDFTLKISRVEAEDVGVYYCSQNTHVPPTFGQGTKVEIERTVAAPSVFIFPPSDEQLKSGTASVVCLLNNFYPREAKVQWKVDNALQSGNSQESVTEQDSKDSTYSLSSTLTLSKADYEKHKVYACEVTHQGLSSPVTKSFNRGEC |
